“And” between values parts separate entries of the source, which are not always exact repeats. Identical values can stand only once.
Target: recombinant soluble NDV HN ectodomain with GCN4IL dimerization domain (HN-GCN4IL) (not stated | Newcastle disease virus)
Assay: SEC; Superdex 200 Increase 10/300 GL column, freshly purified NDV HN proteins

Substance: recombinant soluble NDV HN ectodomain with GCN4IL dimerization domain (HN-GCN4IL)
- stoichiometry N: 2 and 4
